# Data as given in publication PMC6555819, “Comprehensive study of nuclear receptor DNA binding provides a revised framework for understanding receptor specificity”.
# Experiments:
# Test in all cases: no ligand; PBM; 270 nM : 90 nM RXRa; PBS pH 7.4, 2% milk, 0.02% Triton X-100, 1 mM DTT, BSA, 0.4 mg/ml salmon testes DNA
# FXR:RXRa = FXR:RXRa (Homo sapiens, UniProt Q96RI1;P19793 full;full); details: tags: His kept;His cleaved; copies: 1;1; label: surface-attached array probe
# In short: (§1)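 Ligand-free nuclear receptor dimers were applied to custom Agilent 4×180K protein-binding microarrays whose double-stranded probes carried direct-repeat seeds, single-nucleotide variants, half-site ablations and random human genomic background sequences in 34-nt variable regions. Incubation lasted 1 h. Binding z-scores were computed against the random background probes from regression-normalized fluorescence.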
# RARg:RXRa = RARg:RXRa (Homo sapiens, UniProt P13631;P19793 full;full); details: tags: His kept;His cleaved; copies: 1;1; label: surface-attached array probe
# In short: as §1
# PPARa:RXRa = PPARa:RXRa (Homo sapiens, UniProt Q07869;P19793 full;full); details: tags: GST kept;His cleaved; copies: 1;1; label: surface-attached array probe
# In short: as §1
# FXR:RXRa, sequence (Q96RI1 whole entry, chain 1 of 2): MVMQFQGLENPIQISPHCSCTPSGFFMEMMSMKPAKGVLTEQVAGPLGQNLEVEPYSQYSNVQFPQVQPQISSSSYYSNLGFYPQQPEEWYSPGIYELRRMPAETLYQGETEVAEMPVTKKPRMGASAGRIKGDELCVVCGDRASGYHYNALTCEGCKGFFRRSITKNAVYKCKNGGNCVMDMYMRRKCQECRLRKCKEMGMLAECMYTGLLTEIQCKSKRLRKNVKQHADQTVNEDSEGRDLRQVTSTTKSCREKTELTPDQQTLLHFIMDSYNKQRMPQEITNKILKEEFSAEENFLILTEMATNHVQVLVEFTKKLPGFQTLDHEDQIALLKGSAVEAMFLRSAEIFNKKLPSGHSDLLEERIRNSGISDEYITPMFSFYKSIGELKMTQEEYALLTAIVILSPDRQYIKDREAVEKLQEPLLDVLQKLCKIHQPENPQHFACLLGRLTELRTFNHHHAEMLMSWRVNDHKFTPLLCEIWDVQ
# FXR:RXRa, sequence (P19793 whole entry, chain 2 of 2): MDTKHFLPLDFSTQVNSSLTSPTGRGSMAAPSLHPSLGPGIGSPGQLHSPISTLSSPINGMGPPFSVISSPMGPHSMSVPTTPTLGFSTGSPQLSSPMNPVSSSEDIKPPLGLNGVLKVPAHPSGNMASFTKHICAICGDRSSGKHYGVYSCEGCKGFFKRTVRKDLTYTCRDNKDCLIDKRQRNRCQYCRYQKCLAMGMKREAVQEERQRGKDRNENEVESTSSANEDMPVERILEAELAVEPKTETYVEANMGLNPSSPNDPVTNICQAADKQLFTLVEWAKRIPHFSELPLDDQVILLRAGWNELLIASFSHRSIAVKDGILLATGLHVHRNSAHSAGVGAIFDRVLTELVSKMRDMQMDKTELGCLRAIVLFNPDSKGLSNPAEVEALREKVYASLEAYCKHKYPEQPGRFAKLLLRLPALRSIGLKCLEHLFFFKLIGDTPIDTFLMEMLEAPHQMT
# PPARa:RXRa, sequence (Q07869 whole entry, chain 1 of 2): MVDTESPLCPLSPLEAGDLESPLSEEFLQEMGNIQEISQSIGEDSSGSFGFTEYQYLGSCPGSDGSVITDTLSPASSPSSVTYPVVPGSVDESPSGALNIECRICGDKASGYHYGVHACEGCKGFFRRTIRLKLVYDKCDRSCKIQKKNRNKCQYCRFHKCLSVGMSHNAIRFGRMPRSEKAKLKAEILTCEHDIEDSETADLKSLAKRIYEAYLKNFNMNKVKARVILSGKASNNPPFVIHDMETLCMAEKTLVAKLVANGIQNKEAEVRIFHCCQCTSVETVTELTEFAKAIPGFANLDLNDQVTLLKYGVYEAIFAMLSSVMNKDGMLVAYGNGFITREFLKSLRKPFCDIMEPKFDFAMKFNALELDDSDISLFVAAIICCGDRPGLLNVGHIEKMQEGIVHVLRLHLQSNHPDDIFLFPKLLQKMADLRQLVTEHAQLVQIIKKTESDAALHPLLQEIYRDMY
# PPARa:RXRa, sequence (P19793 whole entry, chain 2 of 2): as the sequence (P19793 whole entry, chain 2 of 2) above
# RARg:RXRa, sequence (P13631 whole entry, chain 1 of 2): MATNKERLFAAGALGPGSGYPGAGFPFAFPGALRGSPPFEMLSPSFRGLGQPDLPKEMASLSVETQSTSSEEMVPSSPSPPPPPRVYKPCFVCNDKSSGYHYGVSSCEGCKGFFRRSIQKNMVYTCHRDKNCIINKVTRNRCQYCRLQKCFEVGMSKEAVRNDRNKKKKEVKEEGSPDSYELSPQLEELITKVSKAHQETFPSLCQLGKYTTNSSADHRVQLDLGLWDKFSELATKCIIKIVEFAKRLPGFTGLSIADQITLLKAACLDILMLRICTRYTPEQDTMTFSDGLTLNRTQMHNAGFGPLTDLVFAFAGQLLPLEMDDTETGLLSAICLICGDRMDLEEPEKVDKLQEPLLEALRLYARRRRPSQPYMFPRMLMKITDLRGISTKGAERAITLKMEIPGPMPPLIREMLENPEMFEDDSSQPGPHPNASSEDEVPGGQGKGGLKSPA
# RARg:RXRa, sequence (P19793 whole entry, chain 2 of 2): as the sequence (P19793 whole entry, chain 2 of 2) above
Binder,binding signal (FXR:RXRa),binding signal (RARg:RXRa),binding signal (PPARa:RXRa)
NRC3_wobSeed82_DR3_G14C_o1 (dsDNA) DNA 1: GCATCGAAAGGTCCACGAGGTGAGTATACACCGTTTGCGATTGACAGCGTAGAATGAAGG DNA 2: CCTTCATTCTACGCTGTCAATCGCAAACGGTGTATACTCACCTCGTGGACCTTTCGATGC,0.48 PBM z-score against 500 random probes,–,–
NRC3_wobSeed46_DR1_A16C_o1 (dsDNA) DNA 1: GCTTACCAAGGTGAACGGTCGTTGATGCACGCCTTGGCGATTGACAGCGTAGAATGAAGG DNA 2: CCTTCATTCTACGCTGTCAATCGCCAAGGCGTGCATCAACGACCGTTCACCTTGGTAAGC,0.48 PBM z-score against 500 random probes,–,–
NRC3_wobSeed45_DR1_A9C_o1 (dsDNA) DNA 1: GCTGTCAACGTTCAAAGGTAACGTAAGTATCCACACGCGATTGACAGCGTAGAATGAAGG DNA 2: CCTTCATTCTACGCTGTCAATCGCGTGTGGATACTTACGTTACCTTTGAACGTTGACAGC,0.46 PBM z-score against 500 random probes,–,–
NRC3_wobSeed41_DR1_G17C_o1 (dsDNA) DNA 1: GCATATGTAGGTTAAGCGTCATTCAGGTTGGTTCGCGCGATTGACAGCGTAGAATGAAGG DNA 2: CCTTCATTCTACGCTGTCAATCGCGCGAACCAACCTGAATGACGCTTAACCTACATATGC,0.45 PBM z-score against 500 random probes,–,–
NRC3_wobSeed93_DR3_C13T_o1 (dsDNA) DNA 1: GCAGTCAAAGTTTATCTAGGTAACGTAAGATATGCTGCGATTGACAGCGTAGAATGAAGG DNA 2: CCTTCATTCTACGCTGTCAATCGCAGCATATCTTACGTTACCTAGATAAACTTTGACTGC,0.4 PBM z-score against 500 random probes,–,–
NRC3_wobSeed138_DR5_A14G_o1 (dsDNA) DNA 1: GCGATACAGGGTCGGCTAGAGGCCAGAGTATGGAAAGCGATTGACAGCGTAGAATGAAGG DNA 2: CCTTCATTCTACGCTGTCAATCGCTTTCCATACTCTGGCCTCTAGCCGACCCTGTATCGC,0.37 PBM z-score against 500 random probes,–,–
NRC3_wobSeed87_DR3_A14G_o1 (dsDNA) DNA 1: GCCGAACTAGGTCGTCCAGGACAGTGAATACATTGAGCGATTGACAGCGTAGAATGAAGG DNA 2: CCTTCATTCTACGCTGTCAATCGCTCAATGTATTCACTGTCCTGGACGACCTAGTTCGGC,0.36 PBM z-score against 500 random probes,–,–
NRC3_wobSeed101_DR4_A14C_o1 (dsDNA) DNA 1: GCCCTTACGGGTCCCTCCAGGTTATAGCATCGGAGTGCGATTGACAGCGTAGAATGAAGG DNA 2: CCTTCATTCTACGCTGTCAATCGCACTCCGATGCTATAACCTGGAGGGACCCGTAAGGGC,0.32 PBM z-score against 500 random probes,–,–
NRC3_wobSeed87_DR3_G10C_o1 (dsDNA) DNA 1: GCCGAACTACGTCATCCAGGACAGTGAATACATTGAGCGATTGACAGCGTAGAATGAAGG DNA 2: CCTTCATTCTACGCTGTCAATCGCTCAATGTATTCACTGTCCTGGATGACGTAGTTCGGC,0.27 PBM z-score against 500 random probes,–,–
NRC3_wobSeed141_DR5_G10C_o1 (dsDNA) DNA 1: GCAGTCAAACTTCAGGACGAGGTAACGTAAAGCACGGCGATTGACAGCGTAGAATGAAGG DNA 2: CCTTCATTCTACGCTGTCAATCGCCGTGCTTTACGTTACCTCGTCCTGAAGTTTGACTGC,0.23 PBM z-score against 500 random probes,–,–
NRC3_wobSeed15_DR0_A14G_o1 (dsDNA) DNA 1: GCCGAACTAGGTCGAGGACAGTGAATCTCCGCACGCGCGATTGACAGCGTAGAATGAAGG DNA 2: CCTTCATTCTACGCTGTCAATCGCGCGTGCGGAGATTCACTGTCCTCGACCTAGTTCGGC,0.21 PBM z-score against 500 random probes,–,–
NRC3_wobSeed21_DR0_T12C_o1 (dsDNA) DNA 1: GCCGTCAAAGTCCAAGGTAACGTAACAGAAAGCAGCGCGATTGACAGCGTAGAATGAAGG DNA 2: CCTTCATTCTACGCTGTCAATCGCGCTGCTTTCTGTTACGTTACCTTGGACTTTGACGGC,0.2 PBM z-score against 500 random probes,–,–
NRC3_wobSeed39_DR1_A14T_o1 (dsDNA) DNA 1: GCCGAACTAGGTCTAAGGACAGTGAAAGGCGACGTAGCGATTGACAGCGTAGAATGAAGG DNA 2: CCTTCATTCTACGCTGTCAATCGCTACGTCGCCTTTCACTGTCCTTAGACCTAGTTCGGC,0.18 PBM z-score against 500 random probes,–,–
NRC3_wobSeed63_DR2_A14G_o1 (dsDNA) DNA 1: GCCGAACTAGGTCGCCAGGACAGTGAAGAGGTTGGAGCGATTGACAGCGTAGAATGAAGG DNA 2: CCTTCATTCTACGCTGTCAATCGCTCCAACCTCTTCACTGTCCTGGCGACCTAGTTCGGC,0.16 PBM z-score against 500 random probes,–,–
NRC3_wobSeed90_DR3_A14G_o1 (dsDNA) DNA 1: GCCATACAGGGTCGGCTAGGCCAGAGTAGGGACGGCGCGATTGACAGCGTAGAATGAAGG DNA 2: CCTTCATTCTACGCTGTCAATCGCGCCGTCCCTACTCTGGCCTAGCCGACCCTGTATGGC,0.13 PBM z-score against 500 random probes,–,–
NRC3_wobSeed138_DR5_A8G_o1 (dsDNA) DNA 1: GCGATACGGGGTCAGCTAGAGGCCAGAGTATGGAAAGCGATTGACAGCGTAGAATGAAGG DNA 2: CCTTCATTCTACGCTGTCAATCGCTTTCCATACTCTGGCCTCTAGCTGACCCCGTATCGC,–,7.98 PBM z-score against 500 random probes,6.77 PBM z-score against 500 random probes
NRC3_random_hg19_20_o1 (dsDNA) DNA 1: GCTACACTCTCCCAAGACTAAACCAGGAAGAAGTTGGCGATTGACAGCGTAGAATGAAGG DNA 2: CCTTCATTCTACGCTGTCAATCGCCAACTTCTTCCTGGTTTAGTCTTGGGAGAGTGTAGC,–,0.15 PBM z-score against 500 random probes,0.29 PBM z-score against 500 random probes
NRC3_random_hg19_317_o1 (dsDNA) DNA 1: GCGCCTCCTTCTTTCCTTTGTCATCTGGTGGTGGGAGCGATTGACAGCGTAGAATGAAGG DNA 2: CCTTCATTCTACGCTGTCAATCGCTCCCACCACCAGATGACAAAGGAAAGAAGGAGGCGC,–,-1.07 PBM z-score against 500 random probes,-0.11 PBM z-score against 500 random probes
NRC3_random_hg19_31_o1 (dsDNA) DNA 1: GCCAAGAGGACTCGCACAGTGGTGCATGGCAGCTTGGCGATTGACAGCGTAGAATGAAGG DNA 2: CCTTCATTCTACGCTGTCAATCGCCAAGCTGCCATGCACCACTGTGCGAGTCCTCTTGGC,–,-0.25 PBM z-score against 500 random probes,-0.47 PBM z-score against 500 random probes
NRC3_random_hg19_270_o1 (dsDNA) DNA 1: GCTATAGGAAGCAGGATGTTTCTTGAGAGTGTGGCCGCGATTGACAGCGTAGAATGAAGG DNA 2: CCTTCATTCTACGCTGTCAATCGCGGCCACACTCTCAAGAAACATCCTGCTTCCTATAGC,–,-0.4 PBM z-score against 500 random probes,-0.83 PBM z-score against 500 random probes
NRC3_random_hg19_14_o1 (dsDNA) DNA 1: GCGCAGGGACTATGTGCATTAGGCCAGTTCCTCATGGCGATTGACAGCGTAGAATGAAGG DNA 2: CCTTCATTCTACGCTGTCAATCGCCATGAGGAACTGGCCTAATGCACATAGTCCCTGCGC,–,-0.69 PBM z-score against 500 random probes,-1.96 PBM z-score against 500 random probes
NRC3_random_hg19_253_o1 (dsDNA) DNA 1: GCTAGCCCTCTCAGAGGACAGAGCTAGGATAGCATGGCGATTGACAGCGTAGAATGAAGG DNA 2: CCTTCATTCTACGCTGTCAATCGCCATGCTATCCTAGCTCTGTCCTCTGAGAGGGCTAGC,–,-0.23 PBM z-score against 500 random probes,–
NRC3_random_hg19_416_o1 (dsDNA) DNA 1: GCCCTAGTTGGACCTGTGGGAAGGGCACTACTGTTCGCGATTGACAGCGTAGAATGAAGG DNA 2: CCTTCATTCTACGCTGTCAATCGCGAACAGTAGTGCCCTTCCCACAGGTCCAACTAGGGC,–,-0.27 PBM z-score against 500 random probes,–
NRC3_random_hg19_218_o1 (dsDNA) DNA 1: GCTTAGTCATGAAGTCTTTGCCCATGCCTGTGTCCTGCGATTGACAGCGTAGAATGAAGG DNA 2: CCTTCATTCTACGCTGTCAATCGCAGGACACAGGCATGGGCAAAGACTTCATGACTAAGC,–,-0.54 PBM z-score against 500 random probes,–
